The numbers were not newly measured in publication PMC9434060 (Heliyon, 2022), which cites them from elsewhere.

For this series the following is noted: hIntL-1, ligand not given; ref [10].

B1: hIntL-1: Human intelectin-1, disulfide-linked trimeric lectin (protein, UniProt Q8WWA0 19-298, looked up)
Intelectin-1: TDEANTYFKEWTCSSSPSLPRSCKEIKDECPSAFDGLYFLRTENGVIYQTFCDMTSGGGGWTLVASVHENDMRGKCTVGDRWSSQQGSKAVYPEGDGNWANYNTFGSAEAATSDDYKNPGYYDIQAKDLGIWHVPNKSPMQHWRNSSLLRYRTDTGFLQTLGHNLFGIYQKYPVKYGEGKCWTDNGPVIPVVYDFGDAQKTASYYSPYGQREFTAGFVQFRVFNNERAANALCAGMRVTGCNTEHHCIGGGGYFPEASPQQCGDFSGFDWSGYGTHVGYS
In the case of B1, the Kd is 85 ± 14 nM.

By Kd is commonly meant the constant that tells how readily two partners part at equilibrium.
